Increase in tryptophan fluorescence intensity of the C3d^A4H/C3d^W41A solution (100 µM, equimolar Sbi construct, excitation 295 nm), read as N-terminal helix swap, change in tryptophan fluorescence intensity of the C3d^A4H/C3d^W41A solution (100 µM, equimolar Sbi construct, excitation 295 nm), read as N-terminal helix swap and increase in melting temperature (Tm) of C3d^17A data for three substances are collected here from paper PMC9174452.

For assay [1], the target named is C3d^A4H-C3d^W41A heterodimer (human).
Assay [2] addresses human C3d^17A (monomeric) (human). Kind of assay: near-UV circular dichroism thermal melt; 87.5 µM C3d^17C or C3d^17A alone or with an equimolar concentration of the Sbi construct, 10 mM sodium phosphate pH 7.4, 250-320 nm, 5°C to 85°C; Tm from Boltzmann sigmoidal fits at 280 and 296 nm. For orientation: Circular dichroism is the unequal absorption of left and right circularly polarised light.

For the substance “Sbi domain IV (wild-type Sbi-IV) (from UniProt Q2FVK5 198-266) (domain or fragment)”, the increase in tryptophan fluorescence intensity of the C3d^A4H/C3d^W41A solution (100 µM, equimolar Sbi construct, excitation 295 nm), read as N-terminal helix swap in assay [1] is 27%.
With “Sbi domains III and IV (wild-type Sbi-III-IV) (from UniProt Q2FVK5 150-266) (domain or fragment)”, the increase in tryptophan fluorescence intensity of the C3d^A4H/C3d^W41A solution (100 µM, equimolar Sbi construct, excitation 295 nm), read as N-terminal helix swap in assay [1] was found to be 17%.
Regarding “truncated Sbi-IV mutant Sbi-IV^V198-D208del (from UniProt Q2FVK5 198-266) (domain or fragment)”, the change in tryptophan fluorescence intensity of the C3d^A4H/C3d^W41A solution (100 µM, equimolar Sbi construct, excitation 295 nm), read as N-terminal helix swap in assay [1] came to 2.5%. Further, in assay [2], the increase in melting temperature (Tm) of C3d^17A was determined as 6.5 °C.
